Patent publication US9399667B2, “Peptides derived from cytotoxicity receptor natural killer protein 44 NKP44” (03;b. G. NEGEV TECHNOLOGIES AND APPLICATIONS LTD., AT …, priority 2012, dated 2016)
Values belong to the substance of their own block, whether it stands above or below them.

Tests used:
human cancer cells = assay: Direct binding of biotin-conjugated NKp44-derived peptides to human cancer cells (flow cytometry); details: biotin-conjugated peptide 10 μg/well; number in brackets is an undefined grade
NKp44-Ig = target: T1, NKp44-Ig (Homo sapiens, UniProt O95944); assay: Effect of peptides on NKp44-Ig binding to tumor cells (flow cytometry); details: for Effect on NKp44-Ig binding to tumor cells: 2 μg/well NKp44-Ig, 10 μg/well peptide, 1.5 hr, number in brackets is an undefined grade
T1 construct: fusion proteins containing the extracellular domains NKp30, NKp44 or NKp46 fused to the Fc portion of human IgG1
T1 sequence (O95944 22-192 limits assumed): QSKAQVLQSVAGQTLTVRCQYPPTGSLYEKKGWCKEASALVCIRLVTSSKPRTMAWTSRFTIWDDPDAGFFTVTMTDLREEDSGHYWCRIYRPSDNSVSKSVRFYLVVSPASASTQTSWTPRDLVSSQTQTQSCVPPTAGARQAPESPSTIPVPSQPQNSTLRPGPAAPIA
Protocol: (§1) Binding of rNK receptors and binding inhibition assays were performed as follows: 1×10^5 target cells were incubated with 2 μg of the NK receptor-Ig and 5 or 10 μg of the peptides in staining solution consisting of 0.5% (w/v) BSA and 0.05% sodium azide in PBS at 4° C. for 1.5 hrs. Then, cells were washed and stained with APC-conjugated anti-human IgG. Dead cells were detected with propidium iodide (PI). Percentage of inhibition was calculated as the percent of the cell population showing a reduced staining by the NK receptor-Ig in the presence of peptides as compared to reference positive staining by the NK receptor-Ig without peptides. […] Flow cytometry was performed using a FACSCanto II or FACScalibur (BD Bioscience) and results were analyzed using Diva 6.1.2 or CellQuest 3.3, respectively.
Target cells were incubated for 1.5 hr with 2 μg/well NKp44-Ig and 10 μg/well of each peptide. NKp44-Ig binding intensity was determined by flow cytometry, using fluorescent 2Ab (goat anti-mouse mAb).
(§2) Target cells were stained with 2 μg/well of NK receptor-Igs in the presence of 10 μg/well of SEQ ID NO: 4, 5, 55 (15mer-shared core sequence between SEQ ID NO:4 and 5), or SEQ ID NO: 1. The NK receptor-Ig staining intensities were determined by flow cytometry, using fluorescent APC-conjugated F(ab′)2 goat anti-human IgG.

NKp46-Ig = target: T2, NKp46-Ig (Homo sapiens, UniProt O76036); assay: Effect of peptides on NKp46-Ig binding to tumor cells (flow cytometry); details: Example 3, FIG. 9B/9C; 10 μg/well peptide; to a lesser extent than NKp46D2-Ig binding
T2 construct: fusion proteins containing the extracellular domains NKp30, NKp44 or NKp46 fused to the Fc portion of human IgG1; made in house
Protocol: as §1, §2

[1] = tested on: human cancer cells, MIN6 murine beta cell line and primary mouse beta cells; assay: Direct binding of biotin-conjugated NKp46-derived peptides to target cells (flow cytometry, fluorescent Streptavidin); details: biotin-conjugated peptide 10 μg/well, number in brackets is an undefined grade
NKp46D2-Ig = target: T3, NKp46D2-Ig (Homo sapiens, UniProt O76036); assay: Effect of peptides on NKp46D2-Ig binding to target cells (flow cytometry); details: for Effect on NKp46D2L binding to cells: 1.5 hr, compared to staining without peptide or with non-affecting peptides, number in brackets is an undefined grade
T3 construct: made in house
Protocol: as §1
(§3) Target cells were incubated for 1.5 hr with 2 μg/well NKp46D2-Ig and 10 μg/well of each peptide. NKp46D2-Ig binding intensity was determined by flow cytometry, using fluorescent 2Ab (goat anti-mouse monoclonal antibody).
as §2

LIR1-Ig = target: T4, LIR1-Ig (Homo sapiens, UniProt Q8NHL6); assay: Effect of peptides on LIR1-Ig binding to target cells (flow cytometry); details: for Binding of LIR1-Ig in the presence of peptide: Example 1, FIGS. 3 and 5, HeLa cells
T4 construct: made in house
Protocol: as §1, with “target cells were incubated with 2 μg of the NK receptor-Ig and 5 or 10 μg of the peptides in staining solution consisting” left out
as §3, §2

NKp30-Ig = target: T5, NKp30-Ig (Homo sapiens, UniProt O14931); assay: Effect of peptide on NKp30-Ig binding to HeLa cells (flow cytometry); details: pep4 0.625 to 10 μg/well, FIG. 9D
T5 construct: fusion proteins containing the extracellular domains NKp30, NKp44 or NKp46 fused to the Fc portion of human IgG1; made in house
T5 sequence (O14931 19-135 limits assumed): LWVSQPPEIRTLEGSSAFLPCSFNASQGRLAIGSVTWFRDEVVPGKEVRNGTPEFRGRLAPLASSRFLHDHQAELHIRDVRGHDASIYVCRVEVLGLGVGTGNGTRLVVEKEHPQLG
Protocol: as §1, with “target cells were incubated with 2 μg of the NK receptor-Ig and 5 or 10 μg of the peptides in staining solution consisting” left out
as §2

[2] = tested on: NKp46-expressing NK cells; assay: Flow cytometry cytotoxicity assay: lysis of target tumor cells by human primary NK cells; type: cell-based
Protocol: (§4) NK cells were isolated from the peripheral blood of healthy donors using a human NK cell isolation kit (Miltenyi Biotec). NK purity was greater than 90% (CD3^−CD56^±). Purified NK cells were cultured in CellGro SCGM serum-free medium (CellGenix, 2001) supplemented with 10% heat inactivated human plasma from healthy donors, 1 mM sodium pyruvate, 2 mM L-glutamine, MEM non-essential amino acids, 1% penicillin/streptomycin, 10 mM HEPES (Gibco™) and 300 IU/ml of human IL-2 (Biological Industries Israel Ltd).
(§5) The flow cytometry cytotoxicity assay was previously described (Flodstrom et al. Diabetes 48, 706-713 (1999)). Effector human primary NK cells were labeled with CellTrace CFSE (Invitrogen, C3554). Analysis of 7-AAD for negative-CFSE target tumor cells was performed using a FACSCantoII and data were analyzed by Diva 6.1.2. For blocking experiments, NK cells were pre-incubated with mouse polyclonal anti-NKp46 serum or with naive serum 30 min at 4° C. before being combined with target cells. The NK degranulation assay was performed as previously described (Raulet, D. H. Nat Rev Immunol 3, 781-790 (2003); Biassoni, R. et al. Eur J Immunol 29, 1014-1020 (1999)).
Next, the influence of the peptide of SEQ ID NO: 4 on NK cells function was investigated. Target HeLa cells were plated and pep4 or mock peptide was added just before adding an effector human primary NK cell line. […] To verify that the peptide of SEQ ID NO: 4 inhibits NKp46-mediated lysis, anti-NKp46 serum was used to block the receptor on human primary NK cells.

human primary NK cells = assay: CD107a (LAMP-1) degranulation assay of human primary NK cells; type: cell-based; details: co-cultured with HeLa or 721.221 target cells for four hours at different E:T ratios; FIG. 10C, p<0.05
Protocol: as §4
as §5, with “1014-1020 (1999)). […]” for “1014-1020 (1999)).”

[3] = 2 μg/well NKp46D2-Ig, 10 μg/well peptide
[4] = HeLa cells, pep4 0.625 to 10 μg/well, FIG. 9D

T2 sequence (O76036 22-258 limits assumed): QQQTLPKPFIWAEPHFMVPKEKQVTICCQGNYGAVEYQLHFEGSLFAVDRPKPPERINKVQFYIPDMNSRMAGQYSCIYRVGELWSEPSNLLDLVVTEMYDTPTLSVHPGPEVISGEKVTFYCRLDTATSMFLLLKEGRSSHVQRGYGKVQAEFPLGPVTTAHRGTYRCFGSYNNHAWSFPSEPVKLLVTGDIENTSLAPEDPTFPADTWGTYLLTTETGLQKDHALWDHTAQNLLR
T3 sequence (O76036 with tags, fused parts or gaps isoform O76036-6): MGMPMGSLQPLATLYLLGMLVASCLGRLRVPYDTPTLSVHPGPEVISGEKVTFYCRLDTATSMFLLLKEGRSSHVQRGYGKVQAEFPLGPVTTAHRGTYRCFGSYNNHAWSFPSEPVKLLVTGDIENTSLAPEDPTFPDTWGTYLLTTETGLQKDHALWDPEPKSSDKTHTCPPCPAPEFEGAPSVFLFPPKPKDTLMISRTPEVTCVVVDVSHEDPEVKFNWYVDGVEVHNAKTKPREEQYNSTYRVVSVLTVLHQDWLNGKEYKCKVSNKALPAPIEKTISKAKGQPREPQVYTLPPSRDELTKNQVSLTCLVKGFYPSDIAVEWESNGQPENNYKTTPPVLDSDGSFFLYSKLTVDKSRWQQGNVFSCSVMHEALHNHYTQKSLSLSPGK
T4 sequence (Q8NHL6 24-461 limits assumed): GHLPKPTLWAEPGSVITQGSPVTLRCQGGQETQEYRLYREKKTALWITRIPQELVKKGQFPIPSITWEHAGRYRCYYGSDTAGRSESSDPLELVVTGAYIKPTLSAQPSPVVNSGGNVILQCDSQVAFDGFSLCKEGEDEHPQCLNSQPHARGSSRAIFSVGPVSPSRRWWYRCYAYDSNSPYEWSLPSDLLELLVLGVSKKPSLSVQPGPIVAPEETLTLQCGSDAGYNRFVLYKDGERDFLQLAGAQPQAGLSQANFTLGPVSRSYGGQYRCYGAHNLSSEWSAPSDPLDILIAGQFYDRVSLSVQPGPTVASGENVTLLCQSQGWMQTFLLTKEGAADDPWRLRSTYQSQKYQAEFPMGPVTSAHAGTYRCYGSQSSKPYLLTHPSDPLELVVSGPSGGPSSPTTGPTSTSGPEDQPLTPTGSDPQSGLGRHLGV

Substance: KGWCK EASAL VCIRL VTSSK (KGWCKEASALVCIRLVTSSK) [SEQ ID NO: 31]
- Direct binding to tumor cells (human cancer cells): Yes (1)
- Effect on NKp44-Ig binding to tumor cells (NKp44-Ig): Enhance (1)

Substance: SGEKV TFYCR LDTAT SMFLL (SGEKVTFYCRLDTATSMFLL) [SEQ ID NO: 4]
- Direct binding to cells [1]: No
- Effect on NKp46D2L binding to cells (NKp46D2-Ig; [3]): inhibiting binding
- Effect on NKp46D2L binding to cells (NKp46D2-Ig; 2 μg/well NKp46D2-Ig, 10 μg/well peptide, listed as 4): Suppress (2)
- Binding of NKp46D2-Ig to HeLa cells upon co-incubation with peptide (NKp46D2-Ig; Example 3, FIG. 9A, 2 μg/well NKp46D2-Ig, 10 μg/well peptide): inhibited binding
- Inhibition of rNKp46 binding across tumor cell lines (NKp46D2-Ig; HeLa, PC-3, HEK293T, 721.221, CHO-K1 and MIN-6 cells, FIG. 9C): evident for numerous tumor cell lines
- Binding of LIR1-Ig in the presence of peptide (LIR1-Ig): not affected
- Binding inhibition of LIR1-Ig (LIR1-Ig; [4]): did not induce significant binding inhibition
- Binding inhibition of NKp44-Ig (NKp44-Ig; [4]): did not induce significant binding inhibition
- NKp46-Ig binding to tumor cells in the presence of peptide (NKp46-Ig): inhibited
- Binding inhibition of NKp30-Ig (NKp30-Ig): did not induce significant binding inhibition
- Lysis of target 721.221 and CHO-K1 cells by NK cells ([2]; 721.221 and CHO-K1 target cells): inhibition of lysis
- Lysis of target cells by NKp46-expressing NK cells ([2]; Example 1): inhibit lysis
- Blocking effect of anti-NKp46 serum on lysis when the peptide was present ([2]; anti-NKp46 serum compared to control serum, FIG. 10B): no blocking effect was observed
- Lysis of target cells in the presence of control serum ([2]; compared to control peptide, 15:1 E:T, FIG. 10B, p<0.01): inhibited lysis
- Lysis of target HeLa cells by human primary NK cell line ([2]; compared to mock1, 4 hr, FIG. 10A, p<0.01): significantly suppressed
- Percentage of CD107a+ NK cells (human primary NK cells): significantly reduced

Substance: SMFLL LKEGR SSHVQ RGYGK (SMFLLLKEGRSSHVQRGYGK) [SEQ ID NO: 7]
- Direct binding to cells [1]: direct binding
- Direct binding to cells ([1]; listed as 7): Yes (1)
- Effect on NKp46D2L binding to cells (NKp46D2-Ig; [3]): enhancing NKp46D2-Ig binding
- Effect on NKp46D2L binding to cells (NKp46D2-Ig; 2 μg/well NKp46D2-Ig, 10 μg/well peptide, listed as 7): Enhance (2)
- Binding of LIR1-Ig in the presence of peptide (LIR1-Ig): not affected

Substance: LDTAT SMFLL LKEGR SSHVQ (LDTATSMFLLLKEGRSSHVQ) [SEQ ID NO: 6]
- Direct binding to cells [1]: No
- Effect on NKp46D2L binding to cells (NKp46D2-Ig; [3]): inhibiting binding
- Effect on NKp46D2L binding to cells (NKp46D2-Ig; 2 μg/well NKp46D2-Ig, 10 μg/well peptide, listed as 6): Suppress (1)
- Binding of LIR1-Ig in the presence of peptide (LIR1-Ig): not affected

Substance: TFYCR LDTAT SMFLL LKEGR (TFYCRLDTATSMFLLLKEGR) [SEQ ID NO: 5]
- Direct binding to cells [1]: No
- Effect on NKp46D2L binding to cells (NKp46D2-Ig; [3]): inhibiting binding
- Effect on NKp46D2L binding to cells (NKp46D2-Ig; 2 μg/well NKp46D2-Ig, 10 μg/well peptide, listed as 5): Suppress (2)
- Binding of LIR1-Ig in the presence of peptide (LIR1-Ig): not affected
- NKp46-Ig binding to tumor cells in the presence of peptide (NKp46-Ig): inhibited

Substance: TTAHR GTYRC FGSYN NHAWS (TTAHRGTYRCFGSYNNHAWS) [SEQ ID NO: 13]
- Direct binding to cells [1]: direct binding
- Direct binding to cells ([1]; listed as 13): Yes (2)
- Effect on NKp46D2L binding to cells (NKp46D2-Ig; [3]): enhancing NKp46D2-Ig binding
- Effect on NKp46D2L binding to cells (NKp46D2-Ig; 2 μg/well NKp46D2-Ig, 10 μg/well peptide, listed as 13): Enhance (1.5)
- Binding of LIR1-Ig in the presence of peptide (LIR1-Ig): not affected

Substance: PLGPV TTAHR GTYRC FGSYN (PLGPVTTAHRGTYRCFGSYN) [SEQ ID NO: 12]
- Direct binding to cells [1]: direct binding
- Direct binding to cells ([1]; listed as 12): Yes (3)
- Effect on NKp46D2L binding to cells (NKp46D2-Ig; [3]): enhancing NKp46D2-Ig binding
- Effect on NKp46D2L binding to cells (NKp46D2-Ig; 2 μg/well NKp46D2-Ig, 10 μg/well peptide, listed as 12): Enhance (3)
- Binding of LIR1-Ig in the presence of peptide (LIR1-Ig): not affected

Second part, led by results:

- Effect on NKp44-Ig binding to tumor cells (NKp44-Ig): Enhance (1)
Substance: VCIRL VTSSK PRIMA WTSRF (VCIRLVTSSKPRTMAWTSRF) [SEQ ID NO: 33]

- NKp46-Ig binding to tumor cells in the presence of peptide (NKp46-Ig): also inhibited
Substance: TFYCR LDTAT SMFLL (TFYCRLDTATSMFLL) [SEQ ID NO: 55]

- Effect on NKp44-Ig binding to tumor cells (NKp44-Ig): Enhance (1)
Substance: EASAL VCIRL VTSSK PRTVA (EASALVCIRLVTSSKPRTVA) [SEQ ID NO: 32]
- Direct binding to tumor cells (human cancer cells): Yes (1)

- Effect on NKp44-Ig binding to tumor cells (NKp44-Ig): inhibiting binding
- Effect on NKp44-Ig binding to tumor cells (NKp44-Ig; listed as 34): Suppress (1.5)
Substance: VTSSK PRTVA WTSRF TIWDD (VTSSKPRTVAWTSRFTIWDD) [SEQ ID NO: 34]
- Direct binding to tumor cells (human cancer cells): No
